The results in this text go back to paper PMC4908395, “Conformational flexibility related to enzyme activity: evidence for a dynamic active-site gatekeeper function of Tyr^215 in Aerococcus viridans lactate oxidase” (Scientific Reports, 2016).

Numbering of substitutions follows the chain as printed. In names and notes the source's numbering stands.

Data set [1] concerns C[C@H](O)C(=O)O. Briefly: steady-state initial rates. The format is biochemical, Aerococcus viridans. The following applies: pH 6.5, 20 °C, air-saturated (250 μM O2), 50 mM potassium phosphate.
The target of data set [2] is T1, avLOX (Aerococcus viridans L-lactate oxidase) (Aerococcus viridans, UniProt Q44467).
T1 construct: wild type from Roche (grade 1, lyophilized); Y215 variants from plasmid pLO-1 in E. coli BL21 (DE3), no tag stated; missing residues 1-7 modeled for simulation only
T1 sequence (Q44467 1-374): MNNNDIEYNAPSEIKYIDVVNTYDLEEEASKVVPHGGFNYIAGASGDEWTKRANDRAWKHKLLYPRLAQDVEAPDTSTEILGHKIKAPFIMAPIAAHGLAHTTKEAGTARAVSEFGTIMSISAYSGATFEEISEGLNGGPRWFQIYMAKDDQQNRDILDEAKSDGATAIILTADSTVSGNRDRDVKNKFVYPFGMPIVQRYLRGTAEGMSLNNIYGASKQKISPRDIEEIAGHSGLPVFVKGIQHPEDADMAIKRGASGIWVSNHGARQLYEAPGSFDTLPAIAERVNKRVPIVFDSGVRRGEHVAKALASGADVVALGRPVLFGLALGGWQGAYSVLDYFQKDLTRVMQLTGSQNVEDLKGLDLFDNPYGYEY
Briefly: stopped-flow anaerobic FMN reduction, […] nm, hyperbolic fit. The note with it: pH 5.5, 20 °C, 50 mM potassium phosphate, read-out: Enzyme / Wild-type avLOX / Reaction pH / 5.5. The format is biochemical.

In data set [3] the test system is C[C@H](O)C(=O)O. In words: purified protein. The following applies: pH 6.5, 20 °C, air-saturated (250 μM O2), 50 mM potassium phosphate.
Substrate in the data set “purified protein”: C[C@H](O)C(=O)O
In words: purified protein. The following applies: pH 6.5, 20 °C, air-saturated (250 μM O2), 50 mM potassium phosphate. This is another data set of the same source.

Data set [4] concerns the molecule itself. In words: crystal structure; hanging drop vapor diffusion, 20 °C; 10 mg/mL protein in 50 mM potassium phosphate pH 7.0 mixed with 30% polyethylene glycol, 50 mM Tris-HCl pH 8.0, 50 mM pyruvate; spacegroup P2_(1), 2.6 Å.

On to “avLOX (Aerococcus viridans L-lactate oxidase) (Aerococcus viridans ATCC 11563 = CCUG 4311; Y215F)”, for which, in the data set on C[C@H](O)C(=O)O [1], the Km is 130 ± 10 µM and the kcat is 22 ± 2 s⁻¹.

Consider `C[C@H](O)C(=O)O` [L-lactate], for which the Kd in data set [2] worked out at 3 ± 0.4 mM.

“avLOX (Aerococcus viridans L-lactate oxidase) (Aerococcus viridans ATCC 11563 = CCUG 4311; Y215H)”: the Km with C[C@H](O)C(=O)O [3] worked out at 520 ± 120 µM.

B1: avLOX (Aerococcus viridans L-lactate oxidase) (Aerococcus viridans ATCC 11563 = CCUG 4311) (protein)
chain: T1 sequence (Q44467 1-374)
As to B1, in “purified protein”, the Km is 500 ± 100 µM and the kcat amounted to 88 ± 2 s⁻¹.

B2: Aerococcus viridans L-lactate oxidase Y215F variant (enzyme)
chain: T1 sequence (Q44467 1-374) with Y215F
notes: also called Y215F avLOX; avLOX Y215F mutant
In the case of B2, the “stoichiometry N” value in data set [4] came to 4.

As a reminder, the Km is the substrate concentration at which the rate is half of its maximum. As a reminder, the kcat is the number of substrate molecules converted per active site and unit of time at saturation. In general, stoichiometry N refers to the number of molecules, sites or subunits per partner or assembly.
